Experiment: yeast display, Sf9 membrane polyspecificity reagent, FACS + sequencing; frameworks hold sequencing errors
Procedure, shortened: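 Genes from sorted yeast were amplified by colony PCR, read by MiSeq 2 × 250 sequencing and filtered on CDR length. These cells carried a synthetic nanobody library in Saccharomyces cerevisiae BJ5465 and were sorted by FACS into low and high (top ~1%) gates on anti-HA and streptavidin fluorescence. Polyreactivity is labelled according to the gate of origin.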

Sequence | polyreactivity (PSR sort gate)
QVQLVESGGGLVQAGGSLRLSCDASGSTIKYYAMGWYRQAPGTEMELVARITSDCGSTFYADSVKGRFTISRDNAKNTVYLLMNRLKPEDTAVYYCNTDYAFRHCWFYPMDYWGQGTQVTVSS | high polyreactivity
QVQLVESGGGLVQAGGSLRLSCDASGYIFSANAMGWYRQSPGKERELVAAITSSGGSTYYADSVKGRFTISRDNAKNTVYLQMNSLKPEDTAVYYCAAYSIYYRSGYPSRYRYYYWGQGTQVTVSS | high polyreactivity
QVQLVESGGGLVQAGGSLRLSCDPSGLTFNTYAMGWYRQAPGKERELVAAISSDGSTYYADSVKGRFTITRDNAKNTVYLQMNSLKPEDTAVYYCAATSFWWDLAGYYHWYDYWGQGTQVTVSS | high polyreactivity
QVQLVESGGGLVQAGGSLRLSCDPSGSIFDGYGMGWYRQAPGKERELVASITWNDGSTYYADSVKGRFTISRDNAKNTVYLQMNSLKPEDTAVYYCAADQWGYEYDYWGQGTQVTVSS | low polyreactivity
QVQLVESGGGLVQAGGSLRLSCEASGRTFDTYAMGCYRQAPGKERELVAAITTSGGTTYYADSVKGRFTISRDNAKNTVYLQMNSLKPEDTAVYYCAADPWIEYTYGSKAYYYWGQGTQVTVSS | low polyreactivity
QVQLVESGGGLVQAGGSLRLSCEASGSTFYRYAMGWYRQAPGKERELVDAISSSGGSTYYADSVKGRFTISRDNAKNTVYLQMNSLKPEDTAVYYCNASYRVRRFDYWGQGTQVTVSS | low polyreactivity
QVQLVESGGGLVQAGGSLRLSCEDSGFIFRVYAMGWYLQAPGKERELVAAINSGGSTNYADSVKGRFTISRDNAKNTVYLQMNSLKPEDTAVYYCAARVKTSYRYLRTYNYCGQGTQVTVSS | high polyreactivity
QVQLVESGGGLVQAGGSLRLSCGASGITFVRYAMGWYRQAPGKERELVAAITTSGGSTYYADSVKGRFTISRDNAKNTVYLQMNSLKPEDTAVYYCAARANAASGTFKYWGQGTQVTVSS | high polyreactivity
QVQLVESGGGLVQAGGSLRLSCGASGLTCREYAMGWYRQAPGKERELVAAITSTGGNTYYADSVKGRFPISRDNAKNTVYLQMNSLTPEDTAVYYCAARTTRRVTSGKFDYWGQGTQVTVSS | high polyreactivity
QVQLVESGGGLVQAGGSLRLSCGASGRIFWDNAMGWYRQAPGKERELVAAIDYRGGNTNYADSVKGRFTISRDNAKNTVYLQMNRLKTEDTAVYYCNAEWAVRYPGYDYWGQGTQVTVSS | low polyreactivity
QVQLVESGGGLVQAGGSLRLSCGASGRTVGGNAMGWERPAPGQERELVAAITNSASTYADSVKGRFTISRDNAQNTVYLLMNSLKPEDTAGSYCAARTLPRVYRNTFGYWGQGTQVTVSS | low polyreactivity
QVQLVESGGGLVQAGGSLRLSCGASGSIIGSYALGWYRQAPGPERELVAAISSSGGRTYYAVSVKGRFTISRDKAKNTVYLQMNRLKPAETAVYYCNTRPGTVFRAGGDDWGQGTQVTVSS | high polyreactivity
QVQLVESGGGLVQAGGSLRLSCGASGSSFADNAMGRYRPATGTERELVDTNTGSGGSTYYADSVKGRFTISRDNAKNTVYLLMNSLKPEDTAVYYCAAEVVAWSLYEDFKTYDYWGQGTQVTVSS | low polyreactivity
QVQLVESGGGLVQAGGSLRLSCGASGYISVGYAMGWYRPAPGKERELVAAITESGGSTYYADSVKGRFTISRDNAKNTVYLQMNSLKPEDSAVYYCAADVIYEDSMDYWGQGTQVTVSS | low polyreactivity
QVQLVESGGGLVQAGGSLRLSCPASGFIFRYYAMGWYRQAPGKERELVAAISWSGGSTYYADSVKGRFTISRDSAKNTVYLQIYSLKPEDTAVYYCGAEGFSYFIYWGQGSQVTVSS | high polyreactivity
QVQLVESGGGLVQAGGSLRLSCPASGFNFPYYAKGWYRQAPGKEREFVAAISSGGNTNYADSVKGRFTISRDNAKNTVYLQMNSLKPEDTAVFYCAAGFLRYLNWSVKYDYWGQGTQVTVSS | low polyreactivity
QVQLVESGGGLVQAGGSLRLSCPASGFTFVSYAMGWYRQAPGKERELVAAISRSGGTTYYADSVKGRFTISRDNAKNTVYLQMNSLKPEDTAVYYCAADFYVFYTRYYYWGQGTQVTVSS | low polyreactivity
QVQLVESGGGLVQAGGSLRLSCPASGIILTQNAMGWYRQAPGKERELVAAITESGARTYYADSVKGRFTISRDNAKNTVYLQMISLKPEDTAVYSCNAYRYYRGQVYPFYYWGHGTQVTVSS | low polyreactivity
QVQLVESGGGLVQAGGSLRLSCPASGLIFVDNAMGWYRQAPGKERELVAAIDSGGSTNYADSVKGRFTISRDNAKNTVYLQMNRLQPEDTAVYYCAADGIYAPWYYQESVEYYFWGQGTQVTVSS | low polyreactivity
QVQLVESGGGLVQAGGSLRLSCPASGLTFGWYAMGWYRQAPGKERELVASITRRSGSTYYADSVKGRFTISRDNAKNTVYLQMNSLKPEDTAVYFWAARSRGTTRFDYWGQGTQVTVSS | high polyreactivity
QVQLVESGGGLVQAGGSLRLSCPASGRIFGTYPMGWSRQEPGKESELVARITRGSSTYYADSVKGRFTISRDNAKNTVYLQMNSLKPEDTAVYYCAAVGWGYSYRARYGYWGQGTQVTVSS | high polyreactivity
QVQLVESGGGLVQAGGSLRLSCPASGRIFPKNAMGWYRQAPGKERELVAAIDYSDGSTNYADSVKGRFTFSRDTAKNTVYLQMNSLKPDDTAVYYCAIVAVPSYDYWGQGTKVTVSS | low polyreactivity

Sequence | polyreactivity (PSR sort gate)
QVQLVESGGGLVQAGGSLRLSCPASGRIFSFYALGGYRQAPGKERELVAAITYTDGSTYADSVKGRFTISRDNAKNTVYLQMNSLKPEDTAVYYCNAYRGWLLSREMDYWGQGTQVTVSS | low polyreactivity
QVQLVESGGGLVQAGGSLRLSCPASGRIFTYYTMGWYRQAPGKERELVASITGGGGRTYYADSVKGRFTISRDNAKNTVYLQMNSLKPEDTAVYYCNDRYPYPYWYTSYDYWGQGSQVTVSS | high polyreactivity
QVQLVESGGGLVQAGGSLRLSCPASGRILWFYAMGWYRQAPGKERELVAAISWNGGSTYYADSVKGRFTISRDNAKNTVYLQMNSLKPEDTAVYYCNKDPSVEWWFDYWGQGTQVTVSS | low polyreactivity
QVQLVESGGGLVQAGGSLRLSCPASGRTFSRNAMGRYRQAPGKERELVATISRRGGSTNYADSVKGRFTISRDNAKNTVYLQMNSLIPEDTAVYYCAAGYRVRDDKVYGIVGAMDYWGQGTQVTVSS | high polyreactivity
QVQLVESGGGLVQAGGSLRLSCPASGRTFWYYAMGWYRQAPGKVRELVAAITWSGSDTYYADSVKGRFTISRDNAKNTVYVQMNSLKPEDTAVYFCAAEYYYESSGYDYWGQGTQVTVSS | high polyreactivity
QVQLVESGGGLVQAGGSLRLSCPASGRTFYTNAMGWYRHAPGKERELVAAITRGGSTYYADSVKGRFTISRDNAKNTVYLQMYSLKPEDTAVYYCAAAYASSWRQRVTSEKGYYWGQGTQVTVSS | high polyreactivity
QVQLVESGGGLVQAGGSLRLSCPASGSIFYTNAMGWYRQAPVKERELVAAISRGGSTKYADSVKGRFTISRDNAKNSVYLQMNSLKPEDTAVYYCAARGTASRYLYIPYYYWGQGTQVTVSS | high polyreactivity
QVQLVESGGGLVQAGGSLRLSCPASGSIYASNTMGWYRQAPGKERELVSGITKIGSSTYYADSVKRRFTISRDNAKNTVYLQMNSLKPEDTAVYYCNAYGPTIYSSRYDYWGQGTQVTVSS | low polyreactivity
QVQLVESGGGLVQAGGSLRLSCPASGSTFGYYAMGWYRQAPGKERELVAAITYSVGGTYYADSVKGRFTISRDNAKNTVYLQMNSLKPEDTAVYSCNVDYYVPPAGVTRTGDDDYWGQGTQVTVSS | low polyreactivity
QVQLVESGGGLVQAGGSLRLSCPASGSTFKRNAMGWYRQAPGKERELVATITRRGGSTYADSVNGRFTISRDNAKNTVYLQMNSLKAEDTAVYYCARDGFSAGMDYWGQGTQVTVSS | low polyreactivity
QVQLVESGGGLVQAGGSLRLSCPASGSTLAWYTMGWYRQAPGKEREFVAVITGSGGSTFYADSVKGRFTISRDNAKNTVYLQMNSLKPEDTAVYYCAADYLYYVTQHRRFHLDYWGQGTQVTVSS | low polyreactivity
QVQLVESGGGLVQAGGSLRLSCPASGSTLVYNDMGWYRQAPGKEREFVAAIRSNDGSTYYADSVKGRFTISRDNAKNTVYLQMNSLKPEDTAVYYCNKDVWDGYDWPEFDYWGQGTQVTVSS | low polyreactivity
QVQLVESGGGLVQAGGSLRLSCPASGSTQHYYVKAWYRQAQGKERELVAAITWSGVSTYYADSVKGRFTISRDNAKNTVYLQMNSLKPEDTAVYYCAKRIFTSARLNYWGKGTQVTVSS | high polyreactivity
QVQLVESGGGLVQAGGSLRLSCSASGFIFGTNTMGWYRQAPGKEWELVAAITSVGSTNYADSVKGRFTISRDNAKNTVYLQMNSLKPEDTAVYYCPATLYYQYGGDYWGQGTQVTVSS | low polyreactivity
QVQLVESGGGLVQAGGSLRLSCSASGFIFLDYAMGLYRQAPGKERELVAAISSRGARTYYADSVKGRFTISRDNAKNTVYLQMNSLKPEDTAVYYCAARGPHDRYGYWGQGNQVTVSS | high polyreactivity
QVQLVESGGGLVQAGGSLRLSCSASGFTFSWYAMGWYRQAPGKDRELVAAINADGGTTYYADSVKGRFTISRDNAKNTVYLQMNSLKPEDTAVYYCADELSVDKYDYWGQGTQVTVSS | low polyreactivity
QVQLVESGGGLVQAGGSLRLSCSASGFTFYVNAMGWYRQAPGKERELVAAITDDGDSTYYADSVKGRFTISRDNAKNTVYLQMNSLKPEDTAVYYCKTVYGPDLDGTEYDYWGQGTQVTVSS | low polyreactivity
QVQLVESGGGLVQAGGSLRLSCSASGIIYKSYAMGWYRQAPGKERELVAAISGGGDTYYADSVKGRFTISRDNAKNTVYLQMNSLKPEDTAVYYCNTDGSQGTIIAIFVKYDYWGQGTQVTVSS | low polyreactivity
QVQLVESGGGLVQAGGSLRLSCSASGITFKRYAMGWYRQAPGTERELVAAITISACSTYYADSVKGRFTNSRDIAKNTVYLQMNSLKPEVTAVYYCAAVSYGSWYYYWGQGTHVTVSS | high polyreactivity
QVQLVESGGGLVQAGGSLRLSCSASGITFTSYAMGWYRQAPGKERELVASIDSDDSTNYADSVKGRFTISLDNAKNTVYLQMNSLKPEDTAVYYCNADYLTVSWSIPEHVTVRLMYYWGQGTQVTVSS | low polyreactivity
QVQLVESGGGLVQAGGSLRLSCSASGITFYRYVMGWYRQAPGKERELVAAISRGGGSTYYADSVKGRFTISRDNAKNTVYLQMNSLKPEDTAVYYCAARAWVQGGIGGQSWFDYWGQGTQVTVSS | high polyreactivity

Source: the nanobody polyreactivity screen of Harvey et al. (2022)
